The values below come from patent publication US20220195041A1 (IMMUNORIZON, published 2022).

Substitutions are numbered along the chain they refer to.

To fix the notation:
T1: cyno CD3epsilon-His (cynomolgus CD3epsilon extracellular fusion antigen, Cat #CDE-05226, Acro Biosystems) (cynomolgus, UniProt Q95LI5 22-117)
T1 construct: extracellular domain; Bought reagent; also called cyno CD3e antigen; not shown: His tag
T1 sequence (looked up): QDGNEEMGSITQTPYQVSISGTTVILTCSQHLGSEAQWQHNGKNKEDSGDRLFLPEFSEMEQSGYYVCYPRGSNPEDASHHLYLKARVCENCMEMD

B1: Construct 2: Tri-Specific variable heavy chain-variable light chain (VHVL), anti-CD3epsilon Fab with two anti-EGFR scFv (VH-VL), no regulatory domains (bispecific antibody)
heavy: GGSGGSEVQLVESGGGLVQPGGSLRLSCAASGFTFNTYAMNWVRQAPGKGLEWVARIRSKYNNYATYYADSVKDRFTISRDDSKNTLYLQMNSLRAEDTAVYYCVRHGNFGNSYVSWFAYWGQGTMVTVSSASTKGPSVFPLAPSSKSTSGGTAALGCLVKDYFPEPVTVSWNSGALTSGVHTFPAVLQSSGLYSLSSVVTVPSSSLGTQTYICNVNHKPSNTKVDKRVEPKSCPPCGGGGSQVQLQESGPGLVKPSETLSLTCTVSGGSVSSGDYYWTWIRQSPGKGLEWIGHIYYSGNTNYNPSLKSRLTISIDTSKTQFSLKLSSVTAADTAIYYCVRDRVTGAFDIWGQGTMVTVSSGGGGSGGGGSGGGGSDIQMTQSPSSLSASVGDRVTITCQASQDISNYLNWYQQKPGKAPKLLIYDASNLETGVPSRFSGSGSGTDFTFTISSLQPEDIATYFCQHFDHLPLAFGGGTKVEIK
light: GGSGGSQAVVTQEPSLTVSPGGTVTLTCRSSTGAVTTSNYANWVQQKPGQAPRGLIGGTNKRAPGTPARFSGSLLGGKAALTLSGVQPEDEAEYYCALWYSNLWVFGGGTKLTVLGQPKAAPSVTLFPPSSEELQANKATLVCLISDFYPGAVTVAWKADSSPVKAGVETTTPSKQSNNKYAASSYLSLTPEQWKSHRSYSCQVTHEGSTVEKTVAPTECPPCSGGGSQVQLQESGPGLVKPSETLSLTCTVSGGSVSSGDYYWTWIRQSPGKGLEWIGHIYYSGNTNYNPSLKSRLTISIDTSKTQFSLKLSSVTAADTAIYYCVRDRVTGAFDIWGQGTMVTVSSGGGGSGGGGSGGGGSDIQMTQSPSSLSASVGDRVTITCQASQDISNYLNWYQQKPGKAPKLLIYDASNLETGVPSRFSGSGSGTDFTFTISSLQPEDIATYFCQHFDHLPLAFGGGTKVEIK
notes: Heterodimer of one HC and one LC polypeptide, no Fc; also called TriBody (VHVL); Tribody (VHVL)
B2: Construct 3: Precursor Tri-Specific Variable Light-Variable Heavy (VLVH), anti-CD3epsilon Fab, two anti-EGFR scFv, HSA and CAP regulatory domains linked by … (bispecific antibody)
heavy: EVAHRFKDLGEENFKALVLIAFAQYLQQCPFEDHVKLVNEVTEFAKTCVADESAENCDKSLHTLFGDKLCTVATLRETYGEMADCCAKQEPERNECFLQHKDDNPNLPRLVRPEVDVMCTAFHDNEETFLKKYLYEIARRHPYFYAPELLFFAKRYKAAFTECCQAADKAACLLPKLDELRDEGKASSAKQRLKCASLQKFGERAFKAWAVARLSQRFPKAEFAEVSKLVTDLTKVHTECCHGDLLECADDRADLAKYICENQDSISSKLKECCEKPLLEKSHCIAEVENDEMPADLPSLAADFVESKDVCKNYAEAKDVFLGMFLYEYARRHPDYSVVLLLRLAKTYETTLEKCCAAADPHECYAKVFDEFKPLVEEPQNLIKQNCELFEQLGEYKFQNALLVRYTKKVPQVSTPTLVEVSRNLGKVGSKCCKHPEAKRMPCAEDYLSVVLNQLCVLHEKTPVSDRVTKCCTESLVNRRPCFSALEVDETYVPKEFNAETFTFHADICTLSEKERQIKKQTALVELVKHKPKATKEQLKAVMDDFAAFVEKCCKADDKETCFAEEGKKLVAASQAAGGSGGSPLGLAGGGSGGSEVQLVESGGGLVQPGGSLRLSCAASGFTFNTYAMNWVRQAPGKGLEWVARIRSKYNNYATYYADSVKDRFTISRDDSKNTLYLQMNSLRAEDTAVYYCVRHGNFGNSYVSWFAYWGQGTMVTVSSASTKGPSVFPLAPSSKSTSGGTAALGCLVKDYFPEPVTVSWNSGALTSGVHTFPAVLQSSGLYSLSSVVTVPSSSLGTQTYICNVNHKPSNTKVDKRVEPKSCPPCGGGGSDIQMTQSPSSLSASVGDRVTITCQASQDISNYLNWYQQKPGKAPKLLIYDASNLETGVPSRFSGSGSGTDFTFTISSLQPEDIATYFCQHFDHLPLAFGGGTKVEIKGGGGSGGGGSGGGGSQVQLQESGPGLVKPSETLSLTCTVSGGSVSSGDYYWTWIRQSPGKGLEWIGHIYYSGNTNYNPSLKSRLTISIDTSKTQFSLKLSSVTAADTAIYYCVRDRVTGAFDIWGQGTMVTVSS
light: QDGNEEMGGITQTPYKVSISGTTVILTGGSGGSPLGLAGGGSGGSQAVVTQEPSLTVSPGGTVTLTCRSSTGAVTTSNYANWVQQKPGQAPRGLIGGTNKRAPGTPARFSGSLLGGKAALTLSGVQPEDEAEYYCALWYSNLWVFGGGTKLTVLGQPKAAPSVTLFPPSSEELQANKATLVCLISDFYPGAVTVAWKADSSPVKAGVETTTPSKQSNNKYAASSYLSLTPEQWKSHRSYSCQVTHEGSTVEKTVAPTECPPCSGGGSDIQMTQSPSSLSASVGDRVTITCQASQDISNYLNWYQQKPGKAPKLLIYDASNLETGVPSRFSGSGSGTDFTFTISSLQPEDIATYFCQHFDHLPLAFGGGTKVEIKGGGGSGGGGSGGGGSQVQLQESGPGLVKPSETLSLTCTVSGGSVSSGDYYWTWIRQSPGKGLEWIGHIYYSGNTNYNPSLKSRLTISIDTSKTQFSLKLSSVTAADTAIYYCVRDRVTGAFDIWGQGTMVTVSS
notes: Uncleaved precursor, about 170 kDa; also called ProTriBody-C EGFR (VL-VH); Precursor Tri-body construct (VL-VH)
B3: Construct 5: Precursor Tri-Specific Non-Cleavable (NC) Variable Light Variable Heavy (VLVH), anti-CD3epsilon Fab, two anti-EGFR scFv, HSA and CAP regulatory … (bispecific antibody)
heavy: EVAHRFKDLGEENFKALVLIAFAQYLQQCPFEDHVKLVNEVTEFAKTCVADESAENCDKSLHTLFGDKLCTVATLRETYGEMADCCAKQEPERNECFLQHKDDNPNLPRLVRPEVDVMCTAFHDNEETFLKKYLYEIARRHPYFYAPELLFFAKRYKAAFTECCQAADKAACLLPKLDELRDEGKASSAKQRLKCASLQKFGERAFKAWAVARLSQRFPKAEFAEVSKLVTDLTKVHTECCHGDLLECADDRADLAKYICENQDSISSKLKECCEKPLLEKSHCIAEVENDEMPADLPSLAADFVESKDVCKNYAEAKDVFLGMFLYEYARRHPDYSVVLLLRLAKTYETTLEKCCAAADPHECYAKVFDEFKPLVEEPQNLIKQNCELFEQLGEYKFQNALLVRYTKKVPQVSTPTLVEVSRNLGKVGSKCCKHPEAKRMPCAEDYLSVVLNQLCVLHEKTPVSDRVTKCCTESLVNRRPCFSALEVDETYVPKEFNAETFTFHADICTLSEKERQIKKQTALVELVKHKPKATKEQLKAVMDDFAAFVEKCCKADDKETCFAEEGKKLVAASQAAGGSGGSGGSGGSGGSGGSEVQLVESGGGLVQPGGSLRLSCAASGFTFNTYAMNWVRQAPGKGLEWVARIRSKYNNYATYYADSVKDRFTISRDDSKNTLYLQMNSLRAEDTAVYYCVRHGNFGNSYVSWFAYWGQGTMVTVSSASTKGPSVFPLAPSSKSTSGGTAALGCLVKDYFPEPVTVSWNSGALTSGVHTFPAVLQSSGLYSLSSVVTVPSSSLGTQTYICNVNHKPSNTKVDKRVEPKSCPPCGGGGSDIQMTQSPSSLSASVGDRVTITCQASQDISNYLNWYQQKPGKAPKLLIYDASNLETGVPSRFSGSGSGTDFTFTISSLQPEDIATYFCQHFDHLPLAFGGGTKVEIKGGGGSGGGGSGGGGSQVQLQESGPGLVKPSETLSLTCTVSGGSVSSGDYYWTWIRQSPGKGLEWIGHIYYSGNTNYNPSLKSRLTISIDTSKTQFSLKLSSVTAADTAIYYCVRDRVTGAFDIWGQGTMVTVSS
light: B2 light with P34G, L35G, G36S, L37G, A38G, G39S
notes: also called ProTriBody-NC EGFR (VL-VH); Non-Cleavable Precursor Tri-body construct (VL-VH)
B4: Construct 4: Precursor Tri-Specific Construct Variable Heavy Variable Light (VHVL), anti-CD3epsilon Fab, two anti-EGFR scFv, HSA and CAP regulatory domains … (bispecific antibody)
heavy: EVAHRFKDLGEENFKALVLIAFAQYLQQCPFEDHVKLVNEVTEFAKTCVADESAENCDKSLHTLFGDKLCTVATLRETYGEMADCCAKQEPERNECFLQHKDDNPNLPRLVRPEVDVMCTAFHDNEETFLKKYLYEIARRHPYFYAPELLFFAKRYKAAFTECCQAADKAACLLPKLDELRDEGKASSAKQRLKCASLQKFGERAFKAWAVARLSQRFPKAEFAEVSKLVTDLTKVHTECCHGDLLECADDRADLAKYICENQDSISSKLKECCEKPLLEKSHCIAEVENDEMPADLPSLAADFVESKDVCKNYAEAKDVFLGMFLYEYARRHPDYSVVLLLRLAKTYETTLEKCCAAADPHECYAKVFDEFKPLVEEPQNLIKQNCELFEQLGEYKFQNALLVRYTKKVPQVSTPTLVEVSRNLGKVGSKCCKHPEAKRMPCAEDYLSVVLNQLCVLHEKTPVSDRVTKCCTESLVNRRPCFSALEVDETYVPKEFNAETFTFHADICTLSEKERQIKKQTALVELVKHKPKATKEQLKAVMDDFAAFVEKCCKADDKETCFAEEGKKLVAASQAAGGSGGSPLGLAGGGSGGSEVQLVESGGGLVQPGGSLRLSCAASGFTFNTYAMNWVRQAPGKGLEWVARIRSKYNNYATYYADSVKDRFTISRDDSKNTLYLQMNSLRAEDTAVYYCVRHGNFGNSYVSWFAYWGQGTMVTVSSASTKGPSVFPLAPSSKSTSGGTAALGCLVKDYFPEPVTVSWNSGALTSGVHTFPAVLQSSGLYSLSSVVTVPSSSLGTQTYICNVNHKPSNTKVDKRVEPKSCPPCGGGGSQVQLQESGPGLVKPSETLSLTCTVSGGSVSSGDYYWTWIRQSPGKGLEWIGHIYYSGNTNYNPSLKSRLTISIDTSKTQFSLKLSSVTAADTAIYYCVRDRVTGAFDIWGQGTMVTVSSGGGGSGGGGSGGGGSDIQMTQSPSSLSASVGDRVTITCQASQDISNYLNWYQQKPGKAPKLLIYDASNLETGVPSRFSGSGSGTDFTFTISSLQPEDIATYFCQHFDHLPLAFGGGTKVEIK
light: QDGNEEMGGITQTPYKVSISGTTVILTGGSGGSPLGLAGGGSGGSQAVVTQEPSLTVSPGGTVTLTCRSSTGAVTTSNYANWVQQKPGQAPRGLIGGTNKRAPGTPARFSGSLLGGKAALTLSGVQPEDEAEYYCALWYSNLWVFGGGTKLTVLGQPKAAPSVTLFPPSSEELQANKATLVCLISDFYPGAVTVAWKADSSPVKAGVETTTPSKQSNNKYAASSYLSLTPEQWKSHRSYSCQVTHEGSTVEKTVAPTECPPCSGGGSQVQLQESGPGLVKPSETLSLTCTVSGGSVSSGDYYWTWIRQSPGKGLEWIGHIYYSGNTNYNPSLKSRLTISIDTSKTQFSLKLSSVTAADTAIYYCVRDRVTGAFDIWGQGTMVTVSSGGGGSGGGGSGGGGSDIQMTQSPSSLSASVGDRVTITCQASQDISNYLNWYQQKPGKAPKLLIYDASNLETGVPSRFSGSGSGTDFTFTISSLQPEDIATYFCQHFDHLPLAFGGGTKVEIK
notes: Uncleaved precursor (no MMP9 treatment); also called ProTriBody-C (VHVL); Pro-Tribody-C (VHVL)
B5: Construct 6: Precursor Tri-Specific Non-Cleavable (NC) Variable Heavy Variable Light (VHVL), anti-CD3epsilon Fab, two anti-EGFR scFv, HSA and CAP regulatory … (bispecific antibody)
heavy: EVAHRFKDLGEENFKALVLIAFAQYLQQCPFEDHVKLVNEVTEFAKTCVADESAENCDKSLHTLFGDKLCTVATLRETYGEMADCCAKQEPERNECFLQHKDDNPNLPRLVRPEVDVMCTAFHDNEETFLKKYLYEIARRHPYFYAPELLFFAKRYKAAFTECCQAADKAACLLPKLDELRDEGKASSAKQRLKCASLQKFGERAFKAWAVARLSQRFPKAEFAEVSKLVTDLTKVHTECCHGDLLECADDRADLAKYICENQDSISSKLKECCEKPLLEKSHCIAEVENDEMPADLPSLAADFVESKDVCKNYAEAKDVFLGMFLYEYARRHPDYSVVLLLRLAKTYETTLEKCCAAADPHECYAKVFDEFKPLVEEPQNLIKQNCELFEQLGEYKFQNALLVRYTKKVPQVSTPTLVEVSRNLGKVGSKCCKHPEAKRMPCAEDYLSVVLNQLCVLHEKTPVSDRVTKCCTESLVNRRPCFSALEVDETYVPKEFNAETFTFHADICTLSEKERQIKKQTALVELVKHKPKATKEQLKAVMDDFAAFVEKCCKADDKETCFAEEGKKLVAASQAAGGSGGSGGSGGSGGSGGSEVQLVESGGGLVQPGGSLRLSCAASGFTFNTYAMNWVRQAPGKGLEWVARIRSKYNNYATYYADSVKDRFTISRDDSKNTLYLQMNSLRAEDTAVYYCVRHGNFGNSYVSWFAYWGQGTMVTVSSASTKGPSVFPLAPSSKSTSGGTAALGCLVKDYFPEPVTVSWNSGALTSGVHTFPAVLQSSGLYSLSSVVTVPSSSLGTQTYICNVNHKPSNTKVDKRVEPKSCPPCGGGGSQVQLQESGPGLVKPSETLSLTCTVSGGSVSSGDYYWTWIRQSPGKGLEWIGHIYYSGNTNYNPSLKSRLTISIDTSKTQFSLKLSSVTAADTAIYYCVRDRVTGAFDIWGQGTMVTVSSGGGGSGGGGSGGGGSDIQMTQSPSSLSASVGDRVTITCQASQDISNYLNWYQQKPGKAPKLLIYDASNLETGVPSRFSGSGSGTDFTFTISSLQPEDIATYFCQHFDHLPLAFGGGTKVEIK
light: B4 light with P34G, L35G, G36S, L37G, A38G, G39S
notes: Not cleaved by MMP9, so the same molecule stands in the assays with and without MMP9; also called ProTriBody-NC (VHVL); Pro-Tribody-NC (VHVL)
B6: Construct 1: Tri-Specific variable light chain-variable heavy chain (VLVH), anti-CD3epsilon Fab with two anti-EGFR scFv (VL-VH), no regulatory domains (bispecific antibody)
heavy: GGSGGSEVQLVESGGGLVQPGGSLRLSCAASGFTFNTYAMNWVRQAPGKGLEWVARIRSKYNNYATYYADSVKDRFTISRDDSKNTLYLQMNSLRAEDTAVYYCVRHGNFGNSYVSWFAYWGQGTMVTVSSASTKGPSVFPLAPSSKSTSGGTAALGCLVKDYFPEPVTVSWNSGALTSGVHTFPAVLQSSGLYSLSSVVTVPSSSLGTQTYICNVNHKPSNTKVDKRVEPKSCPPCGGGGSDIQMTQSPSSLSASVGDRVTITCQASQDISNYLNWYQQKPGKAPKLLIYDASNLETGVPSRFSGSGSGTDFTFTISSLQPEDIATYFCQHFDHLPLAFGGGTKVEIKGGGGSGGGGSGGGGSQVQLQESGPGLVKPSETLSLTCTVSGGSVSSGDYYWTWIRQSPGKGLEWIGHIYYSGNTNYNPSLKSRLTISIDTSKTQFSLKLSSVTAADTAIYYCVRDRVTGAFDIWGQGTMVTVSS
light: GGSGGSQAVVTQEPSLTVSPGGTVTLTCRSSTGAVTTSNYANWVQQKPGQAPRGLIGGTNKRAPGTPARFSGSLLGGKAALTLSGVQPEDEAEYYCALWYSNLWVFGGGTKLTVLGQPKAAPSVTLFPPSSEELQANKATLVCLISDFYPGAVTVAWKADSSPVKAGVETTTPSKQSNNKYAASSYLSLTPEQWKSHRSYSCQVTHEGSTVEKTVAPTECPPCSGGGSDIQMTQSPSSLSASVGDRVTITCQASQDISNYLNWYQQKPGKAPKLLIYDASNLETGVPSRFSGSGSGTDFTFTISSLQPEDIATYFCQHFDHLPLAFGGGTKVEIKGGGGSGGGGSGGGGSQVQLQESGPGLVKPSETLSLTCTVSGGSVSSGDYYWTWIRQSPGKGLEWIGHIYYSGNTNYNPSLKSRLTISIDTSKTQFSLKLSSVTAADTAIYYCVRDRVTGAFDIWGQGTMVTVSS
notes: Heterodimer of one HC and one LC polypeptide (about 100 kDa), no Fc; also called TriBody (VLVH); Tribody EGFR (VL-VH)

The target in the first assay is T2, hEGFR-Fc (EGFR extracellular fusion antigen, Cat #344-ER-050, Bio-techne) (human, UniProt P00533 25-645).
T2 construct: extracellular domain; Bought reagent; also called human EGFR antigen; extracellular domain of hEGFR; not shown: Fc part of the bought fusion
Put plainly: ELISA, coated hEGFR-Fc (FIG. 18A). As for the experimental part:
(§1) The EGFR antigens hEGFR-Fc (Cat #344-ER-050, Bio-techne) and rhesus EGFR-Fc (Cat #EGR-05252, Acro Biosystems)) were diluted to a 0.05 ug/ml concentration in PBS. Human CD3epsilon (hCD3epsilon-His (Cat #10977-H08S, Sino Biological) and cynomolgus CD3epsilon (Cat #CDE-05226, Acro Biosystems)) were diluted to a 0.01 ug/ml concentration in PBS. ELISA plate (Cat #9018, Corning) wells were filled with 100 ul of antigen suspension. Plates were incubated overnight at 4° C. Wells were blocked with 250 ul 1% BSA in PBST for 1 hr at 37° C. and then washed four times with PBST. All washes were done using Biotek (Elx 405). All construct antibodies were diluted to 15 ug/ml and prepared with 3-fold serial dilutions (12 points, including 0 ug/ml). 100 ul/well of diluted antibody construct solution was added to plate and incubated for 1 hr at 37° C. Plates were washed four times with PBST, then 100 ul/well of anti-human kappa light chain-HRP antibody (1:10000) was added and incubated for 0.5 hr at 37° C. Wells were washed 4 times with PBST, then 100 ul/well of TMB substrate was added and plates were incubated at RT for 5 min. 100 ul/well of 1.0 N HCl was added to terminate the reaction. Plates were read using ELISA plate reader at 450 nm wavelength (SpectraMax M5e). Data Analysis was performed using Graphpad Prism 5 software by using nonlinear regression (curve fit): log (agonist) vs. response, agonist is antibody concentration (nM) and response is OD value.
(In an ELISA, binding on a coated surface is turned into a signal by an enzyme label.)
On to B1, for which the binding result was “binds”.

As to B2, the binding result was “binds”.

With B3, the binding result is recorded as “binds”.

On to B4, for which the binding result is listed as “binds”.

Regarding B5, the binding result was “binds”.

Turning to B6, the binding result is listed as “binds”.

A further assay concerns the target T3, rhesus EGFR-Fc (rhesus EGFR extracellular fusion antigen, Cat #EGR-05252, Acro Biosystems) (rhesus, UniProt P55245 25-645).
T3 construct: extracellular domain; Bought reagent; also called rhesus EGFR antigen; extracellular domain of rhesus EGFR; not shown: Fc part of the bought fusion
Put plainly: ELISA, coated rhesus EGFR-Fc (FIG. 18B). As for the experimental part: as §1
In the case of B1, the binding result is listed as “binds”.

Take B2: the binding result is recorded as “binds”.

For the molecule B3, the binding result is “binds”.

For B4, the binding result was “binds”.

Turning to B5, the binding result is listed as “binds”.

For B6, the binding result is “binds”.

For a further assay, the target named is T4, human CD3epsilon on Jurkat cells (human, UniProt P07766 22-207).
T4 construct: Endogenous CD3epsilon on Jurkat T cells, within the CD3/TCR complex; also called Jurkat Cells (Human CD3e); human-CD3e expressing Jurkat cells
Put plainly: FACS on Jurkat cells (FIG. 25).
Regarding B1, the binding result is on record as “binds”.

The next assay addresses T5, human CD3epsilon-His (human CD3epsilon extracellular fusion antigen, Cat #10977-H08S, Sino Biological) (human, UniProt P07766 22-126).
T5 construct: Bought reagent; also called hCD3epsilon-His; hCD3epsilon; not shown: His tag
Put plainly: ELISA, coated human CD3epsilon-His (FIG. 19A). As for the experimental part:
as §1
Turning to B1, the binding result is reported as “binds”.

In the case of B2, the binding result was “binds”.

Turning to B3, the binding result is listed as “binds”.

In the case of B6, the binding result is on record as “binds”.

The next assay deals with T1, cyno CD3epsilon-His (cynomolgus …). Put plainly: ELISA, coated cyno CD3epsilon-His (FIG. 19B). As for the experimental part: as §1
As for B1, the binding result is “binds”.

Turning to B2, the binding result was “binds”.

In the case of B3, the binding result is on record as “binds”.

As for B6, the binding result was “binds”.
